From a protein production outcome set (Wang et al. 2014)

Assay: label from the status in PepcDB records
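Further: failed if final PepcDB status was selected cloned or expressed and not failed if soluble or beyond.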

Row | Sequence | protein production
1 | MEKLVLGIIGIFFVISGFDYINNNKLGLGDKFKEGMISMGSIAISMVGIYSLSPLIGEGIGFLLTPISNFLGIDSSIFPSMFLAVDMGALGIAESLSSNIHMYWISGVIIASTLGATISFSIPLALGIIEEKYLEDLTTGLLYGIMTLPIAPIVAGLFLGVDIKLLLFNILPLIIFAILLAVFMNKFKDTTVKFFIKLGKLIQLVSILGLLVLGFLSIIGIKPIGSILPIDEALSVVGKIAIFLGGAYPLINFITEKFSKVLSKIGEKINIDEFSIAAFLGTLASNIILFQSFNKMSSKGRIALTAFSVSGAFVIGGQLGFVSLKTPEIINIYIASKLIAGITAMVVALIVHRKTEENLNDESQSEENIPVLES | failed
2 | GFAATALPVLQRVTDRTHEATILSVRDGNHHLTVNKVDGPKTFRVTSDPGHLGALHTTSVGKALVAFEEEVERKRLLEELPLDPLTEHSITDRDKFRAEIDQVRRQGYAVMDEENEIGMRAVAVPVLNSQGHAFASLAVAVPVFRLTMEELIAHVPTLQEAAAELAARLPQ | failed
3 | MIPELPHAQLDWDDQGRPRSRVFDDVYFSSESGLDETRHVFIEQNRLGQRFAALADGERFVIGETGFGTGLNFLCAWQLFQQQAPTGARLHFVSVEKYPLSPADLQRALALWPELASFSAPLLEQYVAVHGGFQRIVLEGGRVILTLLIGDALEQLPQLDAQVDAWFLDGFAPAKNPDMWTAELFAELARLAAPGSTISTFTSTGWVRRLLNSAGFKMKRTPGIGHKWEVLRGEFLGWPEDAPAPARARPWFARPALGEKTALVIGGGLAGCASAASLAARGWQVQLLERHAELAREASGNPQGVLYLKLSAHGTALSQMILSGFGYTRRQLEHLQRGQDWDGCGVLQLAFNAKEAERQAQLAAAFPADLLHLLDQPQAQARAGIGLEHGGLFYPEGGWVHPPALCQWQASHPRIQVLAHREVLELRRVDEQWQAWDGDRMLASAAVVILAGAAEIKRFPASADLPLKRIRGQITRLPQTAQSQSLATVVCAEGYVAPARLGEHTLGASFDFKSQDLTPTSAEHAGNLEMLREISSDLLQRLGAEQLPLDSLQGRAAFRCTSPDYLPIVGPLADPLAFAETYAALGKDARQVPDLPCPWLDGLYINSGHGSRGLITAPLSGELLAAWLENEPLPLPRSVAEACHPNRFALRRLIRGKA | failed
4 | MWSIFRKEIAVFLNSLIAYLVILVFLTFIGVFMWVLPASSILDYGYAEMDTLFSYGPLAFLLLIPAITMRSFAEEKKDGTIELLLTKPLSDWQLLLGKYLSACTLVALALIPTVLYYISVYQLGKPVG | failed
5 | MNHASDLILIGSTLLLALAAHAVGQKVHVPRVTLLLLLGALAGPDLLDLLPDNADQSFSLITQLTLAMVGFLLGERMSARDLRQGKEALIVSLAVTLLTAAAVILAVWAVTGNLPAALLLGGIATATAPAATLDVLREAGANGPLTRLVFQVVAIDDAWGAILFSVLLVAAGLLLGNGDLSGPTAMLHGLWEVAGSVLLGMVLGFPMAWLTGRLRPGEPMLLESAGFVFVAAGLASWFGLSYLLTCMTLGIVVANRARHHVRPFRSIEGISEPFLALFFFMAGYQLDWLALPTLGALGLAYVLARIGGRLAGGYLGGLLAGSAPETRQRIGACLMPQAGVALGLALVATERLPELGYILPLVIGATVVFELIGPPMTLLQLRKAGETGQGYQEEPDE | failed
6 | MRLFFEFTLCAALGLLVSGVILIFLLFFGKFGLIEYWIASGKPLAHAMLVLMPDGFWEGLSGIEGAAGNPHVRSFLELCMGLGQSALLLGLLLFRLVCWK | failed
7 | MISDIRKDAEVRMDKCVEAFKTQISKIRTGRASPSLLDGIVVEYYGTPTPLRQLASVTVEDSRTLKINVFDRSMSPAVEKAIMASDLGLNPNSAGSDIRVPLPPLTEERRKDLTKIVRGEAEQARVAVRNVRRDANDKVKALLKDKEISEDDDRRSQDDVQKLTDAAIKKIEAALADKEAELMQF | not failed
8 | TYNYYDHAASAGTGQYLNDVQVETIELPVDYDADFVIPVYGDSMEPKYHSGDYVFVKLSVELTDGDIGVFEYYGDAYIKQLLINDKGAFLHSLNQCGDYPDIPIDRDSDFRIIGEVMGSYRER | failed
9 | MHCALLYSGGKDSTLAALLLDPFYDVTLVSGSFGVRDTDPAQESATAVGFDHVTVDLDPDVAHDAVKQMFDDGYPRNGIQRVHEHAVETVARADWVADADGLGTLDAVADGTRRDDRVPTVDRPLAQSIEDRFDVDYLAPLAGIGRGAIDAMAADRLVVESGPSAEIPKADYEVELRALLRKRYGEGAVADVFPEHTQSRVQGLR | failed
10 | MFITLLLFFLSAAIIYFACEFFVNGVEWVGHRFKLGATATGTVLAAFGTALPESAVTFMAVVFGTTPEQKDIGVGAAMGGPLVLATLAYAVVGLTLARTRRAGSSQVEAAINADQRRLARDQAWFMGVFVFKVALGLLAFAWKPWLGLLFLAVYGLYVKRELTREEECLDCEDLEPLKLRPRDPSPSLFWACAQTVLALAVIALASHVFVRQIELLGLAMGASPHVAALLLAPVATELPEIMNALIWVRQGKERLALANISGAMMIQATIPSAMMIQATIPSALGIFLTPWLLDAPLLAAGGFTLAAILLLWLRFRRAAMSVPALSAVGGLYALFAGYLGWHFYA | failed
11 | MSRYIEAGLSDIGTLGEYVAERPNKGFEPARRRAGVSHTTVSGPKLAVAVMAVSAVCCPCGCQCVLVTPLSPRSFTLCAHIIDTMNTLVDGEWRTDAYETTNEDGAFDRQDTTFRDRVEDDPDARFQPEAGRYHLYACRACPWAHRILVARKLLGLEDAITVDYVDPFRGEDGWQFTPEKAGCTPDTVNGSDYLREVYVEADPDATCRVTVPVLWDKQEETIVNNESEEILRMLDTEFDDVSDNDVDLYPEGYQDEVDRIIDDIYEPINNGVYRSGFADSQSAYDEAVEELFDALDHWDTVLEDQRFLAGDRLTEADICLFTTLVRFDEVYHTHFMCNHKLIREYDNLWPYLRDLYQLPGVAETVNMDHITEHYYTTHPDVSPKRIVPMGPDPDFEAVHDRDELPGDLPETLFPTA | failed
12 | MPEFTNNPVAECDTVFSEKDGKKIVDFIIYPAKNGDQWVGTAVEAKSMGFGGELKVLVGFDAEGKIYNYSLLSHAETPGLGSKAADWFKEGNKGSIKGMNPGEQPLTVSKDGGQVDAITASTITSRAFLNAVNAAYGAYKGDGGANGTTGASQKAVQKSETAIVDSVVIKLEHHHHHH | not failed
13 | RFKQNADHIVLTHVFNGGSAESAALCPQDKIIALDGYACTDFAAQWARYHVRAKINIHFFRAGILRQTVLTVQATAADTAI | failed
14 | MNVDILKQRAKAFDYVFDAIVVTDLQGFIIDWNKGSETLYGYSKEQAIGQPVNMLHVPGDTEHITSEVISAVENQGKWTGEIRMLHKDGHIGWIESMCVPIYGENYQMVGALGINRDITLEHHHHHH | not failed
15 | MPDKPMQYVISRLIDNRTRTRILAPVSALTVKAAREKATGQLQAWREEHTQPSMSASPRFDVFVEQTWKPMIFEHWKPSTKRSVLPALNRRLLAHFGRYPLHMINHKMVQAWFDEISKTRKGAANRNLDTLQSVFKLALRQGHCLTNPCIGIRQNKRRVLNRFLSVAEMQRLSVALDECEAVGGSIAQCADVLRLLLLTGCRLSEITFLKGEYVRGNELHLPDSKTGAKVLYIGQAAVDILSRYHCKANTELFPMKQGASTSLVQSLWLRLRKQIGVEDVRLHDLRHTFASYAVMDGCSIPMVASLLGHKKVTMTLRYTHVGDDSVEQASEVIGAVFKGIFTQPEPPKPLIPRTNETPMPAVKVKQKRLPERKPTAKPKPKAVKKVKQVKPLQKLPTLTKEELRAIQRFRDSELFDRVKIG | failed
16 | MKWDKKWNDGIILALETAFISWFTYAFLYQNYLLYKWHRGSPLPSKIPFVLAGIFVGLAFLAWKGRNLLKPLRENNGGALDERS | failed
17 | MTKTLRTPEHVYLCQRLRQARLDAGLTQADLAERLDKPQSFVAKVETRERRLDVIEFAKWMAACEGLDVVSEIVATIAEGRAQA | not failed
18 | MKQKSLNPLSSSSPNYDEMIQENFKPHWIIGIDPNLSGALAVLKFDDKGSCFAQVYDTPQLEVVVQNIRTRSFNEKSMLELIRSLDVPSGTKAFVAKYIHPENAITAYNDGLGCGLWTLLTSSISVIYVTPSTWDKHFNLSIWSLDGGRKLALEMFPSLKLTTKIDDNARANALLIAAYGHATSDTRYYSFSQIK | failed
19 | MLTRPMGEGYIQYLRLSKETTQPADSKIPGLWSSSVRPEFCCIYRVPDRLRKVNPEAYTPQMLLIGPLHHSKKAEALKRYKTDLRYLNYLNMELHKKKCLDSIADIYGDQPVKEFRRIIEINEKFIRDSYAESTIWINTKDFVEMILHDSVFILLFFIQTGSTLNFNKKEDILFNQSRLINATAILEDLILLENQLPYALLEKLFEPFSSNVNTKETFRDITLRAFRFEGKIKEEVRFQHFTDLFRCVRVSTLSLTEEQINIAKNEPPKSRKIMYNADKLDSAGVNFVNVDEENDLSLVITFKDGILKMPCFTVEDNTERVVRNLMALEQCHYPRTTFVCDYISFLDFLINTDQDVDLLAKKGIVKNWLGHQGSVTEMVNKLCLGLVDFGSHYSDIVENLNKHYDNRLNRSVGTLRRVYFKDLWTGTATIAAVVLLVLTLIQTVASILQVMMQNDNKSPPPPAPSRGL | failed
20 | MAQLTPLDISFIAGYLLLTLLVGLFFSRRASENVGEFFLSGRKLPWWIAGTGMVATTFAADTPLAVAGFVAKNGIAGNWVWWTFVSGGMLTVFFFARLWRRANILTDLEFIELRYSGKAASFLRGFKAVYFGLFINAVIIGWVNLAMFKIIKIMIPGLDPQLTIVGLVIFTAIYSGMSGLWGVSITDAVQFVIAMAGCIILAVLAVNSPQVTAAGGLKQALPDWMFDFFPSFSSTVNTSATGAYALPFTAFAAMAFVQWWASWYPGAEPGGGGYIAQRMMSAKDEKNSLLATLWFTIAHYCVRPWPWIVVGLASLVMFPNLPAGQKEDGFVHVMNAVLPAGLKGLLIAAFMAAYMSTLSTHLNWGTSYLINDLYKRFIKREAEQNHYVLMSRIVTAVTAIFALYITFYVLETITGAWEFIIQCGAGTGFVLIMRWFWWRLNAWSEITSMVAPIVAYSYINQFTTIVFPESIYIIVLFTITCTLAVTWLTKPTDREKLHAFYRTTRVGGALWKPVADEMPDVKGDTGFPALFADWFFGIVLVYATLFGTGKLIFGEPVAAALYYAAGALAGVMIYRDLSKRNWKTFD | failed
21 | LEYSNIPITDNNKVKLIKSGREKFEDLFEAIRGAKHHIHLEYFNFRNDSIANALFDLLGEKVKEGVKVRAMFDAFGNWSNNKPLKKRHLKAIREKGIEIVKFDPFKFPYINHAAHRDHRKIAVIDGKIGYTGGMNIADYYINGLPKIGTWRDMHIRIEGDAVNILQEIFLDIWNKTTKQNIVGEEYFPNHPERADSCNTVISIVDRTPKRNSRMLSHT | failed
22 | MAPQKPVSAAQTAQHSAVWIDVRSEQEFSEGHLHNAVNIPVDQIVRRIYEAAPDKDTPVNLYCRSGRRAEAALQELKKAGYTNVANHGGYEDLLKKGLEHHHHHH | not failed
23 | MANGRIEKIGQQLTTPSGYQVLDATGKHVTAGIVDEHSHIAINGGTNEGTDAVTAEVRIGDVINPEDVSIYRALAGGVTSAQLLHGSANPIGGQSQLIKMKWGESAEQLKFANAPASIKFALGENVKQSNWGEKFVQRFPQTRMGVKALFEETFDAALAYENALKDYDDLRSSEKKKTLAPRPSYRLQAVAEVLKQQRDVHIHSYVQSEILMFLRLAEAYRFKVQTFTHVLEGYKVASELAAHGAGASTFADWWAYKFEVYDAIPQNACLMQKQGVLTSINSDDYEMQRRLNQEAAKSMMYCGMSKEDAWNMVTIYPAKQLRVDEYVGSLTPGKMADIVLWNAEPLSIYAKVTHAWVEGKRYFDREQDQLAQQQVVTERAALIQKILSSDDNAKAGEKVTPLNEPQWHCDTHYQAWGQHHQGAK | failed
24 | MTLAACMQEADQLQHWREKCWRPFFRVDEEILNIHNEQLGINEDHLHGAQSIHVASNIRARKVFEFPYLQTSMKPEDAGVDAILSKFNIMIYSYKDAAYPFRMVPPIVYAHLAILRVNAGDLTSSDTWRLYM | failed
